Data as given in patent US20210163606A1 (ATYR PHARMA, published 2021).

Target: T1, cynomolgus monkey NRP2 on transfected Expi293 cells (cynomolgus monkey)
T1 construct: whole, on cells; Plasmid bought from Origene; transient transfection; also called Cyno NRP2
Assay: flow cytometry on Cyno NRP2-transfected Expi293 cells
Procedure: Binding of a-NRP2 to cynomolgus monkey NRP2-transfected Expi293 cells. Cynomolgus monkey (cyno) NRP2-transfected Expi293 cells were collected by centrifugation at 300 g for 5 minutes, and washed twice by DPBS (with calcium and magnesium, ThermoFisher Cat #14040133).
Washed cells were added to a 96-well V-bottom plate (ThermoFisher Cat #1424572) at 100,000 cells/well in 50 μL of DPBS added with Zombie Violet viability stain (Biolegend Cat #423114, diluted at 1:500). From this step on, cells were protected from light. Cells were kept at room temperature for 10 min and pelleted down at 300 g for 5 minutes at 4° C. Supernatants containing Zombie Violet were discarded, and without washing, 30 uL of antibodies diluted in the flow wash buffer (FWB, DPBS plus 2% FBS and 0.1% sodium azide to inhibit receptor internalization) were added to the cells. For a-NRP2 staining on Cyno NRP2-transfected Expi293 cells, in-house human anti-NRP2 antibodies were tested at final concentrations of 0.006-100 nM at 4-fold dilutions. For each test, NRP2 over-expression on the cell surface was validated by a-NRP2 staining (10 μg/mL R&D #AF567 a-NRP2) in separate wells. Binding was allowed to proceed on ice for 40-60 minutes. Cells were then pelleted at 300 g for 5 minutes at 4° C., supernatants removed, and cells washed twice by adding 150 μL of FWB and centrifuging the cells again in the same conditions. To detect a-NRP2 binding on the cell surface, Cy3-conjugated goat anti-human IgG Fc or AF647-conjugated donkey anti-goat IgG (Jackson ImmunoResearch Cat #109165098 & 705605147) was added to the cells at a final concentration of 3 μg/mL in 30 μL of FWB. After 30-40 minutes of incubation on ice, cells were pelleted at 300 g for 5 minutes at 4° C. and supernatants removed, and the cells were washed twice as described previously. […] Cells were then analyzed on FlowJo analysis software by excluding dead cells and gating singlets.
The EC₅₀ of three anti-NRP2 antibodies, each against a distinct domain of NRP2, were measured for binding to Cyno NRP2-transfected Expi293 cells (see Table E2 and FIG. 4).

B1: aNRP2-10v10 (antibody, V domains shown)
VH: EVQLVQSGAEVKKPGATVKISCKVSGFNIKDYYVHWVQQAPGKGLEWMGRIDVEDDETKYAPKFQGRVTITADTSTDTAYMELSSLRSEDTAVYYCATPIYGAREAWFAYWGQGTLVTVSS
VL: DIQMTQSPSSLSASVGDRVTITCTASSSVSSSYLHWYQQKPGKAPKLLIYRTSNLASGVPSRFSGSGSGTDFTLTISSLQPEDFATYYCHQYYRSPPTFGGGTKVEIK
- EC50: 2.9 nM
